Reference: publication doi:10.1101/2022.06.29.498105 (bioRxiv, 2022)

Target: the molecule itself
Assay: crystal structure

B1: TRIM21 RING domain (domain or fragment)
chain: GSHMASAARLTMMWEEVTCPICLDPFVEPVSIECGHSFCQECISQVGKGGGSVCPVCRQRFLLKNLRPNRQLANMVNNLKEISQEARE
stoichiometry N: 2
